Data: the supplement of paper PMC10567573

B1: POMT2 (parent)
chain: VLRSRIRFIHLVTGCVLGSSGKVL

Variants of: B1
Assay: protein stability index of a GFP-peptide fusion (GPS, HEK-293T) (PSI 1-6); higher = more stable
Conditions: c terminus: a fixed tail appended
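Note: lentivirally expressed fusions sorted by FACS into six bins by GFP to DsRed ratio, PSI derived from sequencing read proportions per bin multiplied by bin number.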

Compared with VLRSRIRFIHLVTGCVLCSSGKVL [G18C], VLRSRIRFIHLVTGCVLKSSGKVL [G18K] is lower in protein stability index: 2.32 for the first, 2 for the second.

Compared with VLRSRIRFIHLVTGCVLISSGKVL [G18I], VLRSRIRFIHLVTGCVLTSSGKVL [G18T] is lower in protein stability index: 2.37 for the first, 2.14 for the second.

Going from VLRSRIRFIHLVTGCVLASSGKVL [G18A] to VLRSRIRFIHLVTGCVLMSSGKVL [G18M], the protein stability index rises from 2.35 to 2.78.

Compared with VLRSRIRFIHLVTGCVLSSSGKVL [G18S], VLRSRIRFIHLVTGCVLRSSGKVL [G18R] is lower in protein stability index: 3.06 for the first, 2.35 for the second.

Compared with VLRSRIRFIHLVTGCVLDSSGKVL [G18D], VLRSRIRFIHLVTGCVLLSSGKVL [G18L] is higher in protein stability index: 1.67 for the first, 2.69 for the second.

Going from VLRSRIRFIHLVTGCVLNSSGKVL [G18N] to VLRSRIRFIHLVTGCVLESSGKVL [G18E], the protein stability index falls from 4.13 to 2.45.

Compared with VLRSRIRFIHLVTGWVLGSSGKVL [C15W], VLRSRIRFIHLVTGSVLGSSGKVL [C15S] is higher in protein stability index: 2.95 for the first, 3.04 for the second.

First: VLRSRIRFIHLVTGPVLGSSGKVL [C15P]
Second: VLRSRIRFIHLVTGNVLGSSGKVL [C15N]
The protein stability index of the first is higher: 2.12 for the first, 1.4 for the second.

First: VLRSRIRFIHLVTGKVLGSSGKVL [C15K]
Second: VLRSRIRFIHLVTGIVLGSSGKVL [C15I]
The protein stability index of the first is higher: 3.31 for the first, 1.67 for the second.

First: VLRSRIRFIHLVTGTVLGSSGKVL [C15T]
Second: VLRSRIRFIHLVTGMVLGSSGKVL [C15M]
The protein stability index of the first is lower: 1.4 for the first, 2.21 for the second.

Compared with VLRSRIRFIHLVTGFVLGSSGKVL [C15F], VLRSRIRFIHLVTGYVLGSSGKVL [C15Y] is higher in protein stability index: 1.72 for the first, 3.56 for the second.

First: VLRSRIRFIHLVTGVVLGSSGKVL [C15V]
Second: VLRSRIRFIHLVTGEVLGSSGKVL [C15E]
The protein stability index of the first is higher: 4.18 for the first, 3.73 for the second.

Compared with VLRSRIRFIHLVTGAVLGSSGKVL [C15A], VLRSRIRFIHLVTGGVLGSSGKVL [C15G] is lower in protein stability index: 3.27 for the first, 3.07 for the second.

First: VLRSRIRFIHLVTGRVLGSSGKVL [C15R]
Second: VLRSRIRFIHLVAGCVLGSSGKVL [T13A]
The protein stability index of the first is higher: 2.13 for the first, 2.01 for the second.

Going from VLRSRIRFIHLVVGCVLGSSGKVL [T13V] to VLRSRIRFIHLVFGCVLGSSGKVL [T13F], the protein stability index falls from 3.37 to 1.64.

Compared with VLRSRIRFIHLVQGCVLGSSGKVL [T13Q], VLRSRIRFIHLVDGCVLGSSGKVL [T13D] is lower in protein stability index: 2.86 for the first, 2.35 for the second.

Compared with VLRSRIRFIHLVHGCVLGSSGKVL [T13H], VLRSRIRFIHLVPGCVLGSSGKVL [T13P] is higher in protein stability index: 2.02 for the first, 4.82 for the second.

Compared with VLRSRIRFIHLVKGCVLGSSGKVL [T13K], VLRSRIRFIHLVGGCVLGSSGKVL [T13G] is lower in protein stability index: 2.22 for the first, 1.51 for the second.

First: VLRSRIRFIHLVIGCVLGSSGKVL [T13I]
Second: VLRSRIRFIHLVYGCVLGSSGKVL [T13Y]
The protein stability index of the first is lower: 2.31 for the first, 3.54 for the second.

Compared with VLRSRIRFIHLVLGCVLGSSGKVL [T13L], VLRSRIRFIHLVEGCVLGSSGKVL [T13E] is lower in protein stability index: 3.22 for the first, 2.08 for the second.

Going from VLRSRIRFIHLVTGCVWGSSGKVL [L17W] to VLRSRIRFIHLVTGCVIGSSGKVL [L17I], the protein stability index falls from 3.74 to 2.28.

Compared with VLRSRIRFIHLVTGCVQGSSGKVL [L17Q], VLRSRIRFIHLVTGCVPGSSGKVL [L17P] is higher in protein stability index: 1.08 for the first, 1.74 for the second.

Compared with VLRSRIRFIHLVTGCVSGSSGKVL [L17S], VLRSRIRFIHLVTGCVHGSSGKVL [L17H] is lower in protein stability index: 2.9 for the first, 2.75 for the second.

Going from VLRSRIRFIHLVTGCVDGSSGKVL [L17D] to VLRSRIRFIHLVTGCVYGSSGKVL [L17Y], the protein stability index rises from 3.16 to 4.34.

First: VLRSRIRFIHLVTGCVMGSSGKVL [L17M]
Second: VLRSRIRFIHLVTGCVFGSSGKVL [L17F]
The protein stability index of the first is higher: 2.42 for the first, 1.62 for the second.

Compared with VLRSRIRFIHLVTGCVVGSSGKVL [L17V], VLRSRIRFIHLVTGCVRGSSGKVL [L17R] is higher in protein stability index: 2.1 for the first, 2.35 for the second.

First: VLRSRIRFIHLVTGCVGGSSGKVL [L17G]
Second: VLRSRIRFIHLVTGCVAGSSGKVL [L17A]
The protein stability index of the first is higher: 3.47 for the first, 2.77 for the second.

First: VLRSRIRFIHLVTECVLGSSGKVL [G14E]
Second: VLRSRIRFIHLVTMCVLGSSGKVL [G14M]
The protein stability index of the first is higher: 1.96 for the first, 1.85 for the second.

Compared with VLRSRIRFIHLVTYCVLGSSGKVL [G14Y], VLRSRIRFIHLVTTCVLGSSGKVL [G14T] is lower in protein stability index: 3.68 for the first, 2.33 for the second.

Going from VLRSRIRFIHLVTWCVLGSSGKVL [G14W] to VLRSRIRFIHLVTLCVLGSSGKVL [G14L], the protein stability index falls from 2.51 to 2.46.

First: VLRSRIRFIHLVTPCVLGSSGKVL [G14P]
Second: VLRSRIRFIHLVTKCVLGSSGKVL [G14K]
The protein stability index of the first is lower: 2.97 for the first, 3.83 for the second.

Compared with VLRSRIRFIHLVTNCVLGSSGKVL [G14N], VLRSRIRFIHLVTFCVLGSSGKVL [G14F] is higher in protein stability index: 2.11 for the first, 3.15 for the second.

Going from VLRSRIRFIHLVTVCVLGSSGKVL [G14V] to VLRSRIRFIHLVTACVLGSSGKVL [G14A], the protein stability index rises from 4.81 to 4.85.

First: VLRSRIRFIHLVTSCVLGSSGKVL [G14S]
Second: VLRSRIRFIHLVTICVLGSSGKVL [G14I]
The protein stability index of the first is higher: 3.28 for the first, 3.23 for the second.

First: VLRSRIRFIHLVTDCVLGSSGKVL [G14D]
Second: VLRSRIRFIHLVTRCVLGSSGKVL [G14R]
The protein stability index of the first is lower: 1.88 for the first, 2.85 for the second.

Compared with VLRSRIRFIHLVTGCHLGSSGKVL [V16H], VLRSRIRFIHLVTGCNLGSSGKVL [V16N] is higher in protein stability index: 3.17 for the first, 3.21 for the second.

Going from VLRSRIRFIHLVTGCGLGSSGKVL [V16G] to VLRSRIRFIHLVTGCWLGSSGKVL [V16W], the protein stability index rises from 2.39 to 2.43.

First: VLRSRIRFIHLVTGCCLGSSGKVL [V16C]
Second: VLRSRIRFIHLVTGCYLGSSGKVL [V16Y]
The protein stability index of the first is lower: 2.73 for the first, 3.11 for the second.

Compared with VLRSRIRFIHLVTGCELGSSGKVL [V16E], VLRSRIRFIHLVTGCMLGSSGKVL [V16M] is higher in protein stability index: 2.4 for the first, 3.73 for the second.

First: VLRSRIRFIHLVTGCPLGSSGKVL [V16P]
Second: VLRSRIRFIHLVTGCRLGSSGKVL [V16R]
The protein stability index of the first is lower: 4.02 for the first, 4.75 for the second.

Going from VLRSRIRFIHLVTGCDLGSSGKVL [V16D] to VLRSRIRFIHLVTGCFLGSSGKVL [V16F], the protein stability index falls from 2.73 to 1.63.

First: VLRSRIRFIHLVTGCILGSSGKVL [V16I]
Second: VLRSRIRFIHLVTGCKLGSSGKVL [V16K]
The protein stability index of the first is lower: 1.6 for the first, 3.78 for the second.

Going from VLRSRIRFIHLVTGCQLGSSGKVL [V16Q] to VLRSRIRFIHLVTGCLLGSSGKVL [V16L], the protein stability index rises from 2.89 to 3.58.

Compared with VLRSRIRFIHLPTGCVLGSSGKVL [V12P], VLRSRIRFIHLWTGCVLGSSGKVL [V12W] is lower in protein stability index: 2.25 for the first, 1.94 for the second.

Going from VLRSRIRFIHLRTGCVLGSSGKVL [V12R] to VLRSRIRFIHLTTGCVLGSSGKVL [V12T], the protein stability index rises from 2.65 to 4.51.

Going from VLRSRIRFIHLNTGCVLGSSGKVL [V12N] to VLRSRIRFIHLMTGCVLGSSGKVL [V12M], the protein stability index falls from 3.83 to 3.2.

First: VLRSRIRFIHLQTGCVLGSSGKVL [V12Q]
Second: VLRSRIRFIHLSTGCVLGSSGKVL [V12S]
The protein stability index of the first is lower: 1.05 for the first, 2.53 for the second.
